Conditions: Dictyostelium discoideum, pH 6.7, Urea, Fluorescence, KH2PO4/K2HPO4 50 mM, reversible: Yes

Chain of Hisactophilin-1 wild type (P13231 whole entry, looked up): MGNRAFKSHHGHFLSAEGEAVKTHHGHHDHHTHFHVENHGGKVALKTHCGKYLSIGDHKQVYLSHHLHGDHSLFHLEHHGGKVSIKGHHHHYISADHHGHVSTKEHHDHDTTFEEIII

Hisactophilin-1 wild type (from UniProt P13231)
denaturant m value (5 °C): 2.66 kcal/mol/M | denaturant midpoint (higher = more stable) (5 °C): 2.14 M | unfolding free energy (5 °C): 5.37 kcal/mol | denaturant m value (15 °C): 2.7 kcal/mol/M | denaturant midpoint (higher = more stable) (15 °C): 2.58 M | unfolding free energy (15 °C): 6.5 kcal/mol | denaturant m value (20 °C): 2.53 kcal/mol/M | denaturant midpoint (higher = more stable) (20 °C): 2.89 M | unfolding free energy (20 °C): 6.71 kcal/mol | denaturant m value (25 °C): 2.51 kcal/mol/M | denaturant midpoint (higher = more stable) (25 °C): 2.91 M | unfolding free energy (25 °C): 6.68 kcal/mol | denaturant m value (30 °C): 2.28 kcal/mol/M | denaturant midpoint (higher = more stable) (30 °C): 2.95 M | unfolding free energy (30 °C): 6.08 kcal/mol | denaturant m value (35 °C): 2.44 kcal/mol/M | denaturant midpoint (higher = more stable) (35 °C): 2.87 M | unfolding free energy (35 °C): 6.43 kcal/mol | denaturant m value (40 °C): 2.34 kcal/mol/M | denaturant midpoint (higher = more stable) (40 °C): 2.63 M | unfolding free energy (40 °C): 5.67 kcal/mol | denaturant m value (45 °C): 2.24 kcal/mol/M | denaturant midpoint (higher = more stable) (45 °C): 2.45 M | unfolding free energy (45 °C): 5.05 kcal/mol

Reference: FireProtDB (doi:10.1016/j.jmb.2004.09.091)
